Results: patent publication US11833164B2, “Methods of treating Fabry disease in patients having a mutation in the GLA gene” (Amicus Therapeutics, Inc., priority 2019, dated 2023)

Tested on: mutant form of α-Gal A expressed in HEK-293 cells
Experiment: HEK assay (GLP HEK / Migalastat Amenability Assay): α-Gal A activity in lysates of transiently transfected HEK-293 cells incubated with or without 10 μM migalastat
Format: cell-based, human
Settings: for Absolute increase (% WT): 10 μM migalastat versus baseline; for Relative increase: 10 μM migalastat α-Gal A activity relative to baseline; for 10 μM migalastat α-Gal A activity (% WT): 5 days; for 10 μM migalastat α-Gal A activity (% WT) / Baseline α-Gal A activity (% WT): percentage of baseline wild-type α-Gal A activity; for 10 μM migalastat α-Gal A activity (% WT) / Baseline α-Gal A activity (% WT) / Baseline α-Gal A activity / 10 μM migalastat α-Gal A activity: mean ± SEM; for Baseline α-Gal A activity (% WT): absence of migalastat; for Baseline α-Gal A activity / 10 μM migalastat α-Gal A activity: lysates of HEK-293 cells transfected with the mutant form; for Baseline α-Gal A activity: incubated 5 days in the absence of migalastat; for 10 μM migalastat α-Gal A activity: incubated 5 days with 10 μM migalastat
Method: Such mutations or variants are also referred to herein as “HEK assay amenable” mutations or variants.
The α-Gal A activity is expressed as the nmoles of free 4-MU released per milligram of protein per hour (nmol/mg/hr).
In Table 7, values for the mean±standard error of the mean (SEM) were calculated. nmol/mg/hr indicates “nmoles of free 4-MU released per mg of protein per hour”. WT indicates “wild-type”. NC indicates “not calculable”. N/A indicates “not applicable”.

| Molecule | Absolute increase (% WT) | Relative increase | 10 μM migalastat α-Gal A activity (% WT) | Baseline α-Gal A activity (% WT) | Baseline α-Gal A activity | 10 μM migalastat α-Gal A activity |
| --- | --- | --- | --- | --- | --- | --- |
| A108E (protein) MQLRNPELHLGCALALRFLALVSWDIPGARALDNGLARTPTMGWLHWERFMCNLDCQEEPDSCISEKLFMEMAELMVSEGWKDAGYEYLCIDDCWMAPQRDSEGRLQEDPQRFPHGIRQLANYVHSKGLKLGIYADVGNKTCAGFPGSFGYYDIDAQTFADWGVDLLKFDGCYCDSLENLADGYKHMSLALNRTGRSIVYSCEWPLYMWPFQKPNYTEIRQYCNHWRNFADIDDSWKSIKSILDWTSFNQERIVDVAGPGGWNDPDMLVIGNFGLSWNQQVTQMALWAIMAAPLFMSNDLRHISPQAKALLQDKDVIAINQDPLGKQGYQLRQGDNFEVWERPLSGLAWAVAMINRQEIGGPRSYTIAVASLGKGVACNPACFITQLLPVKRKLGFYEWTSRLRSHINPTGTVLLQLENTMQMSLKDLL | 14.2 % WT | 1.4 | 52.6 ± 4.6 % WT | 38.4 ± 2.6 % WT | 11629 ± 835 nmol/mg/h | 15648 ± 1305 nmol/mg/h |
| A108V (protein) MQLRNPELHLGCALALRFLALVSWDIPGARALDNGLARTPTMGWLHWERFMCNLDCQEEPDSCISEKLFMEMAELMVSEGWKDAGYEYLCIDDCWMAPQRDSEGRLQVDPQRFPHGIRQLANYVHSKGLKLGIYADVGNKTCAGFPGSFGYYDIDAQTFADWGVDLLKFDGCYCDSLENLADGYKHMSLALNRTGRSIVYSCEWPLYMWPFQKPNYTEIRQYCNHWRNFADIDDSWKSIKSILDWTSFNQERIVDVAGPGGWNDPDMLVIGNFGLSWNQQVTQMALWAIMAAPLFMSNDLRHISPQAKALLQDKDVIAINQDPLGKQGYQLRQGDNFEVWERPLSGLAWAVAMINRQEIGGPRSYTIAVASLGKGVACNPACFITQLLPVKRKLGFYEWTSRLRSHINPTGTVLLQLENTMQMSLKDLL | 34.4 % WT | 3.5 | 47.7 ± 4.6 % WT | 13.3 ± 1.7 % WT | 4914 ± 799 nmol/mg/h | 17249 ± 2284 nmol/mg/h |
| F113V (protein) MQLRNPELHLGCALALRFLALVSWDIPGARALDNGLARTPTMGWLHWERFMCNLDCQEEPDSCISEKLFMEMAELMVSEGWKDAGYEYLCIDDCWMAPQRDSEGRLQADPQRVPHGIRQLANYVHSKGLKLGIYADVGNKTCAGFPGSFGYYDIDAQTFADWGVDLLKFDGCYCDSLENLADGYKHMSLALNRTGRSIVYSCEWPLYMWPFQKPNYTEIRQYCNHWRNFADIDDSWKSIKSILDWTSFNQERIVDVAGPGGWNDPDMLVIGNFGLSWNQQVTQMALWAIMAAPLFMSNDLRHISPQAKALLQDKDVIAINQDPLGKQGYQLRQGDNFEVWERPLSGLAWAVAMINRQEIGGPRSYTIAVASLGKGVACNPACFITQLLPVKRKLGFYEWTSRLRSHINPTGTVLLQLENTMQMSLKDLL | 9.2 % WT | 10.6 | 10.3 ± 1 % WT | 1.1 ± 0.1 % WT | 341 ± 41 nmol/mg/h | 3614 ± 596 nmol/mg/h |
| P110T (protein) MQLRNPELHLGCALALRFLALVSWDIPGARALDNGLARTPTMGWLHWERFMCNLDCQEEPDSCISEKLFMEMAELMVSEGWKDAGYEYLCIDDCWMAPQRDSEGRLQADTQRFPHGIRQLANYVHSKGLKLGIYADVGNKTCAGFPGSFGYYDIDAQTFADWGVDLLKFDGCYCDSLENLADGYKHMSLALNRTGRSIVYSCEWPLYMWPFQKPNYTEIRQYCNHWRNFADIDDSWKSIKSILDWTSFNQERIVDVAGPGGWNDPDMLVIGNFGLSWNQQVTQMALWAIMAAPLFMSNDLRHISPQAKALLQDKDVIAINQDPLGKQGYQLRQGDNFEVWERPLSGLAWAVAMINRQEIGGPRSYTIAVASLGKGVACNPACFITQLLPVKRKLGFYEWTSRLRSHINPTGTVLLQLENTMQMSLKDLL | 18.6 % WT | 1.3 | 81.2 ± 6.5 % WT | 62.6 ± 5.9 % WT | 20474 ± 1528 nmol/mg/h | 26745 ± 1678 nmol/mg/h |
| D109A (protein) MQLRNPELHLGCALALRFLALVSWDIPGARALDNGLARTPTMGWLHWERFMCNLDCQEEPDSCISEKLFMEMAELMVSEGWKDAGYEYLCIDDCWMAPQRDSEGRLQAAPQRFPHGIRQLANYVHSKGLKLGIYADVGNKTCAGFPGSFGYYDIDAQTFADWGVDLLKFDGCYCDSLENLADGYKHMSLALNRTGRSIVYSCEWPLYMWPFQKPNYTEIRQYCNHWRNFADIDDSWKSIKSILDWTSFNQERIVDVAGPGGWNDPDMLVIGNFGLSWNQQVTQMALWAIMAAPLFMSNDLRHISPQAKALLQDKDVIAINQDPLGKQGYQLRQGDNFEVWERPLSGLAWAVAMINRQEIGGPRSYTIAVASLGKGVACNPACFITQLLPVKRKLGFYEWTSRLRSHINPTGTVLLQLENTMQMSLKDLL | 20.4 % WT | 2.2 | 38 ± 3.7 % WT | 17.5 ± 2.2 % WT | 6345 ± 1034 nmol/mg/h | 13742 ± 1780 nmol/mg/h |
| D109Y (protein) MQLRNPELHLGCALALRFLALVSWDIPGARALDNGLARTPTMGWLHWERFMCNLDCQEEPDSCISEKLFMEMAELMVSEGWKDAGYEYLCIDDCWMAPQRDSEGRLQAYPQRFPHGIRQLANYVHSKGLKLGIYADVGNKTCAGFPGSFGYYDIDAQTFADWGVDLLKFDGCYCDSLENLADGYKHMSLALNRTGRSIVYSCEWPLYMWPFQKPNYTEIRQYCNHWRNFADIDDSWKSIKSILDWTSFNQERIVDVAGPGGWNDPDMLVIGNFGLSWNQQVTQMALWAIMAAPLFMSNDLRHISPQAKALLQDKDVIAINQDPLGKQGYQLRQGDNFEVWERPLSGLAWAVAMINRQEIGGPRSYTIAVASLGKGVACNPACFITQLLPVKRKLGFYEWTSRLRSHINPTGTVLLQLENTMQMSLKDLL | 7.5 % WT | 11.9 | 8.2 ± 1.1 % WT | 0.7 ± 0.1 % WT | 212 ± 30 nmol/mg/h | 2530 ± 415 nmol/mg/h |
| D109H (protein) MQLRNPELHLGCALALRFLALVSWDIPGARALDNGLARTPTMGWLHWERFMCNLDCQEEPDSCISEKLFMEMAELMVSEGWKDAGYEYLCIDDCWMAPQRDSEGRLQAHPQRFPHGIRQLANYVHSKGLKLGIYADVGNKTCAGFPGSFGYYDIDAQTFADWGVDLLKFDGCYCDSLENLADGYKHMSLALNRTGRSIVYSCEWPLYMWPFQKPNYTEIRQYCNHWRNFADIDDSWKSIKSILDWTSFNQERIVDVAGPGGWNDPDMLVIGNFGLSWNQQVTQMALWAIMAAPLFMSNDLRHISPQAKALLQDKDVIAINQDPLGKQGYQLRQGDNFEVWERPLSGLAWAVAMINRQEIGGPRSYTIAVASLGKGVACNPACFITQLLPVKRKLGFYEWTSRLRSHINPTGTVLLQLENTMQMSLKDLL | 30.0 % WT | 2.2 | 54.6 ± 3.5 % WT | 24.6 ± 1.7 % WT | 7540 ± 684 nmol/mg/h | 16483 ± 1317 nmol/mg/h |
| D109E (protein) MQLRNPELHLGCALALRFLALVSWDIPGARALDNGLARTPTMGWLHWERFMCNLDCQEEPDSCISEKLFMEMAELMVSEGWKDAGYEYLCIDDCWMAPQRDSEGRLQAEPQRFPHGIRQLANYVHSKGLKLGIYADVGNKTCAGFPGSFGYYDIDAQTFADWGVDLLKFDGCYCDSLENLADGYKHMSLALNRTGRSIVYSCEWPLYMWPFQKPNYTEIRQYCNHWRNFADIDDSWKSIKSILDWTSFNQERIVDVAGPGGWNDPDMLVIGNFGLSWNQQVTQMALWAIMAAPLFMSNDLRHISPQAKALLQDKDVIAINQDPLGKQGYQLRQGDNFEVWERPLSGLAWAVAMINRQEIGGPRSYTIAVASLGKGVACNPACFITQLLPVKRKLGFYEWTSRLRSHINPTGTVLLQLENTMQMSLKDLL | 9.3 % WT | 1.2 | 50.6 ± 3.6 % WT | 41.3 ± 3.4 % WT | 13839 ± 1179 nmol/mg/h | 16926 ± 1156 nmol/mg/h |
| D109N (protein) MQLRNPELHLGCALALRFLALVSWDIPGARALDNGLARTPTMGWLHWERFMCNLDCQEEPDSCISEKLFMEMAELMVSEGWKDAGYEYLCIDDCWMAPQRDSEGRLQANPQRFPHGIRQLANYVHSKGLKLGIYADVGNKTCAGFPGSFGYYDIDAQTFADWGVDLLKFDGCYCDSLENLADGYKHMSLALNRTGRSIVYSCEWPLYMWPFQKPNYTEIRQYCNHWRNFADIDDSWKSIKSILDWTSFNQERIVDVAGPGGWNDPDMLVIGNFGLSWNQQVTQMALWAIMAAPLFMSNDLRHISPQAKALLQDKDVIAINQDPLGKQGYQLRQGDNFEVWERPLSGLAWAVAMINRQEIGGPRSYTIAVASLGKGVACNPACFITQLLPVKRKLGFYEWTSRLRSHINPTGTVLLQLENTMQMSLKDLL | 36.5 % WT | 8.4 | 41.5 ± 2.8 % WT | 5 ± 0.3 % WT | 1475 ± 83 nmol/mg/h | 12358 ± 973 nmol/mg/h |
